Kd, koff and kon data for 1 substance are collected here from paper PMC4401514.

This assay addresses activated Cry1Ac toxin of Bacillus thuringiensis subsp. kurstaki HD73 (Bacillus thuringiensis subsp. kurstaki HD73) (UniProt P05068). Description: SPR; BIAcore 3000; Cry1Ac immobilised on CM5 chip by amine coupling; HaALP1f injected at 31.25-500 nM; HBS (10 mM HEPES, 150 mM NaCl, 0.005% Tween20, pH 7.4), 40 ul/min; 1:1 Langmuir model; apparent rate constants. (In SPR one partner is held on a chip, and binding of the other changes the refractive index at the surface.)

For orientation: koff means the first-order rate constant of dissociation. By kon is commonly meant the rate constant with which the complex forms. Consider “HaALP1f, his-tagged fragment of alkaline phosphatase HaALP1 from Helicoverpa armigera (from UniProt B4Z1D6 192-451) (domain or fragment)”, for which the Kd came out at 7.58 nM, the koff amounted to 0.00248 s⁻¹ and the kon is 327000 M⁻¹ s⁻¹.
